According to the supplement of paper PMC7877785:
± gives the uncertainty stated by the source.

Test: self-splicing fitness, log relative to wild type (ln ratio); higher = more splicing; Tetrahymena group I intron in knt gene, E. coli kanamycin selection, DiMSum; sequences stand for … in CUCUCU…GGAGGGAAAAGUUAUCAGGCAUGCACCUGGUAGCUAGUCUUUAAACCAAUAGAUUGCAUCGGUUUAAAAGGCAAGACCGUCAAAUUGCGGGAAAGGGGUCAACAGCCGUUCAGUACCAAGUCUCAGGGGAAACUUUGAGAUGGCCUUGCAAAGGGUAUGGUAAUAAGCUGACGGACAUGGUCCUAACCACGCAGCCAAGUCCUAAGUCAACAGAUCUUCUGUUGAUAUGGAUGCAGUUCACAGACUAAAUGUCGGUCGGGGAAGAUGUAUUCUUCUCAUAAGAUAUAGUCGGACCUCUCCUUAAUGGGAGCUAGCGGAUGAAGUGAUGCAACACUGGAGCCGCUGGGAACUAAUUUGUAUGCGAAAGUAUAUUGAUUAGUUUUGGAGUACUCGUGGUCG
Outline: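 Library with all eight P1ex-region intron nucleotides randomised, intron inside the knt kanamycin-resistance gene on pET-22b(+), in E. coli BL21(DE3). Cells grew overnight at 37°C or 30°C on LB agar with or without 25 μg/mL kanamycin (plus 100 μg/mL carbenicillin, 50 μM IPTG, 0.2% rhamnose), in six replicate transformations. Pooled colonies were amplicon-sequenced on Illumina HiSeq 2500. DiMSum fitness is the error-weighted combination of wild-type-normalised replicate fold changes, kanamycin versus none.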

| Sequence | self-splicing fitness (ln) (30 °C) | self-splicing fitness (ln) (37 °C) |
| --- | --- | --- |
| CCGCAGCAAUAUUACGUUAC | -3.36 ± 0.14 | -2.29 ± 0.14 |
| CCGGAGCAAUAUUACGAAAC | -1.5 ± 0.23 | -0.933 ± 0.2 |
| CCGGAGCAAUAUUACGAAGG | -2.63 ± 0.14 | -2.28 ± 0.22 |
| CCGGAGCAAUAUUACGAGCG | -0.715 ± 0.082 | 0.256 ± 0.12 |
| CCGGAGCAAUAUUACGAGGA |  | -1.96 ± 0.24 |
| CCGGAGCAAUAUUACGAGGU | -3.56 ± 0.46 | -2.6 ± 0.31 |
| CCGGAGCAAUAUUACGAUCC | -2.16 ± 0.49 |  |
| CCGGAGCAAUAUUACGCCCG | -1.86 ± 0.41 |  |
| CCGGAGCAAUAUUACGCGUA | -3.18 ± 0.3 | -1.59 ± 0.2 |
| CCGGAGCAAUAUUACGGCGA | -3.92 ± 0.33 | -2.42 ± 0.48 |
| CCGGAGCAAUAUUACGUCGG | -3.63 ± 0.21 | -2.82 ± 0.3 |
| CCGGAGCAAUAUUACGUGGC | -3.77 ± 0.39 |  |
| CCGGAGCAAUAUUACGUUAU | -2.97 ± 0.31 | -2.01 ± 0.23 |
| CCGUAGCAAUAUUACGACAA | -3.54 ± 0.27 | -3.19 ± 0.33 |
| CCGUAGCAAUAUUACGAGGG | -3.25 ± 0.18 | -0.352 ± 0.17 |
| CCGUAGCAAUAUUACGAUCG | 0.0338 ± 0.098 | 0.353 ± 0.12 |
| CCGUAGCAAUAUUACGAUGA | -1.48 ± 0.11 | -1.13 ± 0.12 |
| CCGUAGCAAUAUUACGCAUA | -2.31 ± 0.19 | -2.12 ± 0.33 |
| CCGUAGCAAUAUUACGCCGG | -2.94 ± 0.49 |  |
| CCGUAGCAAUAUUACGCCGU | -3 ± 0.44 | -2.16 ± 0.27 |
| CCGUAGCAAUAUUACGCCUC | -1.88 ± 0.44 | -1.82 ± 0.35 |

| Sequence | self-splicing fitness (ln) (30 °C) | self-splicing fitness (ln) (37 °C) |
| --- | --- | --- |
| CCGUAGCAAUAUUACGCGAU | -2.48 ± 0.22 | -3.66 ± 0.35 |
| CCGUAGCAAUAUUACGCGCG | -2.15 ± 0.17 | -0.999 ± 0.18 |
| CCGUAGCAAUAUUACGCGGA | -2.85 ± 0.26 | -3.13 ± 0.26 |
| CCGUAGCAAUAUUACGCGUA | -3.69 ± 0.3 | -2.06 ± 0.31 |
| CCGUAGCAAUAUUACGGACG | -1.88 ± 0.26 |  |
| CCGUAGCAAUAUUACGGAGA | -3.01 ± 0.28 | -2.32 ± 0.38 |
| CCGUAGCAAUAUUACGGCUG | -2.46 ± 0.21 | -1.19 ± 0.17 |
| CCGUAGCAAUAUUACGUCUC | -3.43 ± 0.21 | -3.67 ± 0.31 |
| CCGUAGCAAUAUUACGUUCU | -3.34 ± 0.28 | -3.36 ± 0.42 |
| CCUAAGCAAUAUUACGACCA | -3.19 ± 0.21 | -1.46 ± 0.17 |
| CCUAAGCAAUAUUACGACUG | -1.74 ± 0.15 | -0.483 ± 0.14 |
| CCUAAGCAAUAUUACGACUU | -4.37 ± 0.17 | -2.4 ± 0.13 |
| CCUAAGCAAUAUUACGAGUA | -2.5 ± 0.16 | -1.98 ± 0.18 |
| CCUAAGCAAUAUUACGAUGC | -3.49 ± 0.17 | -1.88 ± 0.16 |
| CCUAAGCAAUAUUACGCAAG | -4.71 ± 0.46 |  |
| CCUAAGCAAUAUUACGCACG | -3.1 ± 0.41 | -1.46 ± 0.23 |
| CCUAAGCAAUAUUACGCAGG | -4.8 ± 0.29 | -2.37 ± 0.25 |
| CCUAAGCAAUAUUACGCCAC | -2.75 ± 0.22 |  |
| CCUAAGCAAUAUUACGCGGG | -3.96 ± 0.21 | -2.68 ± 0.21 |
| CCUAAGCAAUAUUACGCUGG | -4.1 ± 0.32 | -2.48 ± 0.25 |
| CCUAAGCAAUAUUACGGAAG | -2.12 ± 0.11 | -0.751 ± 0.1 |

| Sequence | self-splicing fitness (ln) (30 °C) | self-splicing fitness (ln) (37 °C) |
| --- | --- | --- |
| CCUAAGCAAUAUUACGGAGU | -3 ± 0.17 | -2.55 ± 0.17 |
| CCUAAGCAAUAUUACGGGCG | -2.15 ± 0.11 | -0.76 ± 0.1 |
| CCUAAGCAAUAUUACGGUAU | -3.72 ± 0.23 | -1.85 ± 0.24 |
| CCUAAGCAAUAUUACGUAAA | -3.49 ± 0.24 | -2.43 ± 0.16 |
| CCUAAGCAAUAUUACGUGGU | -4.74 ± 0.32 | -3.13 ± 0.25 |
| CCUAAGCAAUAUUACGUUCU | -2.57 ± 0.16 | -3.16 ± 0.34 |
| CCUAAGCAAUAUUACGUUUG | -4.59 ± 0.18 | -3.16 ± 0.16 |
| CCUAAGCAAUAUUACGUUUU | -3.89 ± 0.18 | -1.3 ± 0.13 |
| CCUCAGCAAUAUUACGAACA | -4.3 ± 0.42 | -1.46 ± 0.41 |
| CCUCAGCAAUAUUACGAAUU | -2.53 ± 0.18 | -2.13 ± 0.2 |
| CCUCAGCAAUAUUACGAGCG | -2 ± 0.094 | -1.05 ± 0.088 |
| CCUCAGCAAUAUUACGCAAC | -2.21 ± 0.3 | -1.83 ± 0.4 |
| CCUCAGCAAUAUUACGCAAU | -3.87 ± 0.2 | -2.01 ± 0.18 |
| CCUCAGCAAUAUUACGCGAU | -4.95 ± 0.38 | -2.63 ± 0.22 |
| CCUCAGCAAUAUUACGCUAU | -4.26 ± 0.43 | -2.22 ± 0.28 |
| CCUCAGCAAUAUUACGGAGC | -4.55 ± 0.3 | -2.91 ± 0.19 |
| CCUCAGCAAUAUUACGGCUG | -3.84 ± 0.21 | -2.36 ± 0.18 |
| CCUCAGCAAUAUUACGUAGU | -2.16 ± 0.066 | -0.762 ± 0.075 |
| CCUCAGCAAUAUUACGUCGG | -3.36 ± 0.16 | -2.59 ± 0.19 |
| CCUCAGCAAUAUUACGUGCC | -2.39 ± 0.17 | -2.39 ± 0.31 |
